Test results published in US20240336673A1 (WEST VIRGINIA UNIVERSITY BOARD OF GOVERNERS ON BEHALF OF …, published 2024).

Columns and labels:
[1] = molecular target: T1, purified recombinant FliC from P. aeruginosa (polyHis-tag FliC protein, gene from P. aeruginosa PAO1) (Pseudomonas aeruginosa PAO1, UniProt P72151 1-488); assay: direct ELISA of hybridoma supernatant on coated recombinant FliC
T1 construct: also called P. aeruginosa flagellin; purified FliC protein from P. aeruginosa; not shown: polyhistidine tag
T1 sequence: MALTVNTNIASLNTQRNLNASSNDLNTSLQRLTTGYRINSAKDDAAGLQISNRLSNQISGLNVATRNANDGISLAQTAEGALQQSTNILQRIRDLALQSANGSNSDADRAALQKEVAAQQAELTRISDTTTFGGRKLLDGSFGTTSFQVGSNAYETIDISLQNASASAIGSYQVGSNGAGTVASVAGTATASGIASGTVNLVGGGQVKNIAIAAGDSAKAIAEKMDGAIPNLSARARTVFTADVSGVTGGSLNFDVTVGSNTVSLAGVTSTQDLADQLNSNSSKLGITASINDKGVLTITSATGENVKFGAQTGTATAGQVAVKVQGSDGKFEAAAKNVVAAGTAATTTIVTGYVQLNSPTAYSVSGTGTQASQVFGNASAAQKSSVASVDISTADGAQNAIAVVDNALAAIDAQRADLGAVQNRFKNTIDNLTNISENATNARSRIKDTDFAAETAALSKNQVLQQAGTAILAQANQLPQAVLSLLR

[2] = molecular target: T2, FliC protein at the surface of P. aeruginosa PAO1 (Pseudomonas aeruginosa PAO1, UniProt P72151 1-488); assay: direct ELISA of hybridoma supernatant on whole P. aeruginosa PAO1
T2 construct: whole, on cells; Native protein on whole bacteria or in lysates; also called P. aeruginosa PAO1 flagellin; type b flagellin
T2 sequence: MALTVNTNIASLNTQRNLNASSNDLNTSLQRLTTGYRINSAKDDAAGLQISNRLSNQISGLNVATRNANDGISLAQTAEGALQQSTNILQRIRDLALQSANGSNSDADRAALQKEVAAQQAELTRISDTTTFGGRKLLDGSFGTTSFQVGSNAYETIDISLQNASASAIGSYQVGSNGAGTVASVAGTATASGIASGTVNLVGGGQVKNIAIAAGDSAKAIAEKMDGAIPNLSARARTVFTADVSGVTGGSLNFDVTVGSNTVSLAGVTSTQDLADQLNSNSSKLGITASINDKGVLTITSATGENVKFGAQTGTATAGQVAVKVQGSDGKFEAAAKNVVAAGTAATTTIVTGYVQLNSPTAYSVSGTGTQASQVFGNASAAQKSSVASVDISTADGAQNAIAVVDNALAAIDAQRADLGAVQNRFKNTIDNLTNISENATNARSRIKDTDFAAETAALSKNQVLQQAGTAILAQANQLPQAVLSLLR

B1: WVDC-2109 (antibody, V domains shown)
VH: EVQLQESGAELVKPGASVKLSCKASGYTFTSYWMHWVKQRPGQGLEWIGMIRPNSGSTNYNEKFKSKATLTVDKSSSTAYMQLSSPTSEDSAVYYCARRGYGSSYGYYAMDYWGQGTSVTVSS
VL: DIVVTQTTSSLSASLGDRVTISCRASQDISNYLNWYQQKPDGTVKLLINYTSRLNSGVPSRFSGSGSGTDYSLTISNLEQEDIATYFCQQGNTLPWTFGGGTKLE
notes: also called anti-FliC mAb; mAb WVDC-2109
B1: binds [1]; binds [2].
